Test results as given in article PMC7907199, “Prokaryotic Argonaute from Archaeoglobus fulgidus interacts with DNA as a homodimer” (Scientific Reports, 2020).

Key:
[1] = molecular target: AfAgoΔ (dimerization mutant of AfAgo lacking residues 296–303) (Archaeoglobus fulgidus) (UniProt O28951)
[2] = molecular target: the molecule itself; assay: cell-based or functional assay
[3] = molecular target: the molecule itself; assay: SEC-MALS; apo proteins without nucleic acids; 1.0 mg/mL (20 µM monomer), 2.0 mL injected; HiLoad 16/60 Superdex 200; 100 mM Tris–HCl pH 8.0, 1000 mM NaCl, 0.04% NaN3; dimer to monomers
[4] = molecular target: T1, AfAgoΔ (dimerization mutant) (Archaeoglobus fulgidus (ATCC 49558), UniProt O28951 1-427, del296-303); assay: SEC-MALS; 5 mM MgCl2; 5 uM protein monomer, 5 uM duplex; major peak 1:1 protein:DNA; SEC-MALS of complexes: 15 mM Tris-HCl pH 8.0, 150 mM NaCl, 5 mM MgCl2, 0.5 mM DTT, 0.04% NaN3; EMSA, AFM and smFRET buffers not in the material; conditions: protein: recombinant; blunt; self-complementary, 2 copies of the strand
T1 sequence: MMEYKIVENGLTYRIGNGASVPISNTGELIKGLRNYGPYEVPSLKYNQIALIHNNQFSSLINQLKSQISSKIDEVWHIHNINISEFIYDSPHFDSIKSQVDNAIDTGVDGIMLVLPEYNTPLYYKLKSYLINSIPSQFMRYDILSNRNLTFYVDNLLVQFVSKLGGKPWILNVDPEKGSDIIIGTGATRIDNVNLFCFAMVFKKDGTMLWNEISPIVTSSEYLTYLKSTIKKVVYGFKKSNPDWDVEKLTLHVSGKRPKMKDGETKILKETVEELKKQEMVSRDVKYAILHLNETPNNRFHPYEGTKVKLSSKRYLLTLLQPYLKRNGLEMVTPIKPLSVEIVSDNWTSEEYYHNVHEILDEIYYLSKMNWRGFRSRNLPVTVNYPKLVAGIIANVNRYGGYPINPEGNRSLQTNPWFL

WT AfAgo = molecular target: T2, WT AfAgo (Archaeoglobus fulgidus (ATCC 49558), UniProt O28951 1-427); assay: SEC-MALS; 5 mM MgCl2; 5 uM protein monomer, 5 uM duplex; mostly 2:2 protein:DNA; SEC-MALS of complexes: 15 mM Tris-HCl pH 8.0, 150 mM NaCl, 5 mM MgCl2, 0.5 mM DTT, 0.04% NaN3; EMSA, AFM and smFRET buffers not in the material; conditions: protein: recombinant; chain copies: 2; blunt; self-complementary, 2 copies of the strand
T2 sequence: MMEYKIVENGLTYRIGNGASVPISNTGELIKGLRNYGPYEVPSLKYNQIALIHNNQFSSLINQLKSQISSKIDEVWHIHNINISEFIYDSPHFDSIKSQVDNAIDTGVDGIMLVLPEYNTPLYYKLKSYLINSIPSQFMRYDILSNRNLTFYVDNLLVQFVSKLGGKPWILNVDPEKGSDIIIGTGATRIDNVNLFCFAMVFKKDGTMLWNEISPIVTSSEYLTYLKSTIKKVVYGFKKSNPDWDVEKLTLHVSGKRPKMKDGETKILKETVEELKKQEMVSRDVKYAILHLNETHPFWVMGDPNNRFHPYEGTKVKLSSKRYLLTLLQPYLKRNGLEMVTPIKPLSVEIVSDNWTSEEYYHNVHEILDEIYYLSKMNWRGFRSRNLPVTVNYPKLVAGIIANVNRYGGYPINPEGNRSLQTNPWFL

**Q.** How did the AFM: DNA loops, % of protein–DNA complexes [1] turn out when “AfAgoΔ (dimerization mutant of AfAgo lacking residues 296–303) (from UniProt O28951 1-427) (natural protein)” was run?
**A.** 26%

B1: WT AfAgo (prokaryotic Argonaute from Archaeoglobus fulgidus, full-length wild type) (natural protein, UniProt O28951 1-427, looked up)
chain: T2 sequence
notes: The printed theoretical Mw of the monomer in the assays (50.8 kDa) is 49.2 kDa plus the 1.63 kDa tag, so the tag was on the protein; In some assays the protein carried a 5'-phosphorylated DNA duplex (MZ-1289) or a long DNA fragment; also called apo-AfAgo; source: E. coli BL21(DE3), purified (Ni2+ HiTrap chelating, RNase A/T1 treatment, HiTrap Heparin, Superdex 200)
**Q.** B1 was tested. Which “smFRET in solution: DNA looping efficiency K (ratio of looped to unlooped dual-labelled 569 bp DNA) against WT AfAgo concentration; maximum at 2 nM, lower at higher concentrations” value [2] did it give?
**A.** 2.5

**Q.** What about the “stoichiometry N” value [3] of the same molecule?
**A.** 2

B2: MZ-1289 oligoduplex (dsDNA)
DNA 1: ATTGTACGTACAAT
DNA 2: ATTGTACGTACAAT
modifications: 5'-phosphate
**Q.** Does B2 bind [4]?
**A.** binds

**Q.** Does B2 bind (WT AfAgo)?
**A.** binds
